As usually defined, the stoichiometry N is a count of units in the complex or per binding partner.

The test concerns the target T1, strep II-tagged full-length C. elegans separase (C. elegans, UniProt G5ED39 1-1262).
T1 construct: separase, Caenorhabditis elegans, full length (residues up to 1262; molecular weight 144.2 kDa); Vector pFBDM-strepII: double strepII tag with a PreScission cleavage site; also called strep II-tagged separase; source: Sf9 insect cells, co-expressed with securin, purified as complex (StrepTactin, SEC)
T1 sequence (looked up): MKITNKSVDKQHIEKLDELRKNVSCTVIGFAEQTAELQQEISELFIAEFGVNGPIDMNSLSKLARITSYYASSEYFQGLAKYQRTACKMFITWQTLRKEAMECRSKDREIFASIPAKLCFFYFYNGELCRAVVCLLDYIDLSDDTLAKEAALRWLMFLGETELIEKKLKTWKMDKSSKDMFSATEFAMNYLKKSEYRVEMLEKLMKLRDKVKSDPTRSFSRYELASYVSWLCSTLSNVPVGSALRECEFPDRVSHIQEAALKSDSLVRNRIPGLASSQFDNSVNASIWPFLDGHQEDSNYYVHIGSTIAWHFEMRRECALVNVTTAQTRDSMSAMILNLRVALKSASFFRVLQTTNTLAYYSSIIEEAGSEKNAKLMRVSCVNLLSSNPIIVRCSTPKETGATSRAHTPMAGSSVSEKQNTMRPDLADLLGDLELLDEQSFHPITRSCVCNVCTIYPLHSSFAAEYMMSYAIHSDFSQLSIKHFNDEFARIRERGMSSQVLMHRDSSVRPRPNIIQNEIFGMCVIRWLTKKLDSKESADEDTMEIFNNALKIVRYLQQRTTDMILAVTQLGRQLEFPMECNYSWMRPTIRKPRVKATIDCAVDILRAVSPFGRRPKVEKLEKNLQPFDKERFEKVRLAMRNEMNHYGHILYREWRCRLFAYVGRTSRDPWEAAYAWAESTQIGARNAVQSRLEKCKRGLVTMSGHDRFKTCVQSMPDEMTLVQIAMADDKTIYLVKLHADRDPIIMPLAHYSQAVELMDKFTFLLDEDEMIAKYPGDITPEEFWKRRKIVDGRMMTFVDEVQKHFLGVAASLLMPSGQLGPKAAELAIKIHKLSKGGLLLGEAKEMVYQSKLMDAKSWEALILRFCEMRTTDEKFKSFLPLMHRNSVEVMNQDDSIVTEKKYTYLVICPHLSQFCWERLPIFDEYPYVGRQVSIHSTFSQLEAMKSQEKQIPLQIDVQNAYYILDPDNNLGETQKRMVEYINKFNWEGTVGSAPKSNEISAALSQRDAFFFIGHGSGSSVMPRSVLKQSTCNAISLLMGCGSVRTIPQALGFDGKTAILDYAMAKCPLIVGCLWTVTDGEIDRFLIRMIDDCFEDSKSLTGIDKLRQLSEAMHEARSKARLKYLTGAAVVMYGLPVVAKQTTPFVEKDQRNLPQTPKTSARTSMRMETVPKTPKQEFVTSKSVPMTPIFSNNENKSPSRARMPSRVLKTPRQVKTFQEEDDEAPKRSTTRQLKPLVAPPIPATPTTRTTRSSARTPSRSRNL
Put plainly: SEC-MALS; 1 mg/ml purified complex on Superose 6 10/300; 50 mM sodium phosphate, 100 mM NaCl, 20 mM NaF, 10% glycerol, 5 mM 2-mercaptoethanol, 3 mM sodium azide, pH 8.0. The conditions noted are these: both partners purified. In general terms: In gel filtration, larger molecules generally elute earlier.

B1: full-length C. elegans securin (co-expressed with StrepII-tagged separase) (natural protein, UniProt Q18235 1-244, looked up)
chain: MEDLNFEERGSTQIPASLQQHFSAKLGRQNELEKTPSRGGLGLVVNSSKTPGGKSLQSLASACKVPPSTKKNTIPIAFECYEDETDDQIADVATIKKTEKHPCSPIDTANRCETFDSLAADIEDDMLNLEDQDVVLSEDRPYGDVIDPAESEAEALAELGVEEWDSYPPIDPASRIGDDFNYVLRTEDFAEEGDVKLEETRHRTVIADIDEVKMSKAERNELFSMLADDLDSYDLLAEEANLPL
notes: it may be the same construct as m2; also called securin FL; source: Sf9 insect cells, co-expressed with StrepII-separase; in soluble lysate (pull-down) and purified as complex (StrepTactin, SEC)
Consider B1, for which the “stoichiometry N” value worked out at 1.

These data come from paper PMC4852461, “A closed conformation of the Caenorhabditis elegans separase–securin complex” (Open Biology, 2016).
